Laboratory results reported in patent US6770740B1, “Crosslinked DNA condesate compositions and gene delivery methods” (The Regents of the University of Michigan, priority 1999, dated 2004).

Experiments:
[1] = QELS particle size and zeta potential of peptide DNA condensates, Example 6; assay type: physicochemical; conditions: charge ratio 4:1, 50 μg/ml DNA in HBM; for Particle Size (nm): 90°, average and SD of three, No particles formed; for Zeta Potential (mV): average and SD of ten
Procedure: The particle size and zeta potential of peptide DNA condensates were determined by quasielastic light scattering (QELS) using a Brookhave ZetaPlus™. Particle size analysis was performed in triplicate at a DNA concentration of 50 μg/ml in HBM at a charge ratio of 4:1 and a scattering angle of 90°. Data analysis utilized a multimodal volume distribution option included with the instrument. Zeta potential was also determined using 50 μg/ml peptide DNA condensates prepared at a 4:1 charge ratio in HBM. The reported zeta potential was averaged from ten determinations.

plasmid DNA = assay: Thiazole orange displacement titration of peptide binding to DNA, Example 6; conditions: titration across charge ratios 0.25-8
Procedure: Peptide DNA condensates were prepared by combining 50 μg of DNA in 500 μl of Hepes buffered mannitol (HBM) (5 w/v% mannitol, 5 mM Hepes, pH 7.5) with […] of peptide in 500 μl of HBM while vortexing to form peptide DNA condensates with a calculated primary amine to phosphate charge ratio between 0.25 and 8.0 (NH4^+:PO4). The condensates were allowed to cross-link for 30 min prior to performing physical measurements. The binding of each peptide to DNA was assayed by combining peptide DNA condensates (50 μl) with 950 μl of HBM containing 0.1 μM thiazole orange. The fluorescence of the intercalated dye was measured using an LS50B fluorometer (Perkin Elmer, UK) by exciting at 500 nm while monitoring emission at 530 nm with the slit width set at 15 and 20 nm, respectively. Fluorescence blanks were substracted from all values before data analysis.

[2] = Shear stress stability (salt sonication assay), Example 6; assay type: physicochemical; conditions: 30 sec sonication; highest tested 2.5 M
Procedure: The relative stability of peptide DNA condensates were examined using a salt sonication assay (Adami and Rice, 1999). Peptide DNA condensates (200 μl of 50 μg/ml) were formed as described above, incubated at RT for 30 min and then combined with 0-200 μl of 5 m […] and normalized to 400 μl with HBM to achieve a final sodium chloride concentration of 0, 0.2, 0.4, 0.8, 1.0, 1.5, 2.0 and 2.5 M. Each sample was sonicated for 30 sec with a 100 W Microson™ XL-2000 ultrasonic probe homogenizer (Kontes, Vineland N.J.) with a vibrational amplitude of 5 fragment uncondensed DNA. DNA condensates were digested with 30 μg to trypsin for 12 h at 37° C., electrophoresed on a 1% agarose gel electrophoresed in TEA buffer for 2 h, then visualized by ethidium bromide staining and destaining prior to photography on a transilluminator.

HepG2 cells = assay: Luciferase gene expression in HepG2 cells, Example 6; assay type: cell-based; conditions: HepG2, absence of chloroquine
Procedure: HepG2 cells (1.5×10^5) were plated on 6×35 mm wells and grown to 50% confluencey in MEM supplemented with 10% FBS, penicillin and streptomycin (100 U/ml), sodium pyruvate (100 mM), and L-glutamine (2 mM). Transfections were performed in MEM (2 ml per 35 mm well) with 2% FBS with and without 80 μM chloroquine. Peptide DNA condensates (10 μg of DNA of 0.2 ml HBM) were added dropwise to triplicate wells. After a 5 h incubation at 37° C., the medium was replaced with MEM supplemented with 10% FBS. After 24 h, cells were washed with ice-cold phosphate buffered saline (calcium and magnesium free) and then treated with 0.5 ml of ice-cold lysis buffer (25 mM) Tris chloride pH 7.8, 1 mM EDTA, 8 mM magnesium chloride, 1% Triton X-100, 1 mM DTT) for 10 min. The cell lysates were scraped, transferred to 1.5 ml microcentrifuge tube, and centrifuged for 7 min at 13,000 g at 4° C. to pellet debris.
Lysis buffer (300 μl), sodium-ATP (4 μl of a 180 mM solution, pH 7, 4° C.) and cell lysate (100 μl, 4° C.) were combined in a test tube, briefly mixed and immediately placed in the luminometer. Luciferase relative light units (RLU) were recorded on a Lumat™ LB 9501 (Berthoid Systems, Germany) with 10 sec integration after automatic injection of 100 μl of 0.5 mM D-luciferin (prepared fresh in lysis buffer without DTT). The RLU were converted into fmol using a standard curve generated by adding a known amount of luciferase (0.01 to 100 fmols with specific activity of 2.5 nU/fmol) to 35 mm wells containing 50% confluent cells and lysis buffer. Protein concentrations were measured by Bradford assay using bovine serum albumin as a standard (Bradford, 1976). […]
LipofectAce™ (Gibco BRL, 1:2.5 w/w dimethyl dioctadecylammonium bromide and dioleoyl phosphatidylethanolamine) was used to mediate gene transaction according to the manufacturer's instructions. […] The cells were incubated for a total of 24 h, harvested and analyzed for luciferase as described above.

[3] = Shear stress stability of cross-linked DNA condensates (salt sonication), Example 5; assay type: physicochemical; conditions: charge ratio of 0.9
Procedure: Peptide DNA condensates (200 μl of 50 μg/ml) were formed and incubated at RT for 30 min and then combined with 0 to 200 μl of 5 M sodium chloride and normalized to 400 μl with HBM to achieve a final sodium chloride concentration of 0, 0.2, 0.4, 0.8, 1.0, 1.5, 2.0, and 2.5 M. Each sample was sonicated for 30 sec with a 100 W Microson™ XL-2000 ultrasonic probe homogenizer (Kontes, Vineland N.J.) with a vibrational amplitude of 6 to fragment uncondensed DNA (Adami et al., 1998). DNA condensates were digested with 30 μg of trypsin for 12 h at 37° C. then electrophoresed on an agarose gel and visualized by ethidium bromide staining.

[4] = QELS particle size and zeta potential of cross-linking peptide DNA condensates, Example 5; assay type: physicochemical; conditions: for Particle Size Mean Diameter, Oxidized, 15° / Particle Size Mean Diameter, Oxidized, 90°: HBM after 2 h incubation, 50 μg/ml DNA, 0.4 nmol peptide per μg DNA; for Particle Size Mean Diameter, Oxidized, 15°: scattering angle 15°; for Particle Size Mean Diameter, Oxidized, 90°: scattering angle 90°; for Particle Size Mean Diameter, Saline: HBM with added saline (0.15 M) after 15 min; for Particle Size Mean Diameter, Reduced: following addition of TCEP (1 mM)
Procedure: The particle size of each peptide DNA condensate was determined by quasielastic light scattering (QELS) at a scatter angle of both 15° and 90° on a Brookhaven ZetaPlus™ particle sizer. Condensates were prepared at a DNA concentration of 50 μg/ml in 400 μl HBM at a stoichiometry of 0.4 nmol of peptide per μg of DNA corresponding to a charge ratio of approximately 2:1 for each. The mean diameter and population distribution were computed from the diffusion coefficient using a unimodal cummulant analysis supplied by the manufacturer.
The particle size and zeta peptide IV DNA condensates were determined by titrating 7.5 to 37.5 nmol of peptide with 75 μg of DNA in 1.5 ml of HBM to produce 50 μg/ml DNA condensates with charge ratio of 0.5-2.5. The zeta potential was averaged from 10 determines.

Cys-(Lys)6-Cys (CKKKKKKC) [Peptide 6]
Particle Size (nm) [1]: 52 ± 4 nm | Zeta Potential (mV) [1]: 37 ± 1 mV | charge ratio (NH4+:PO4) needed to condense DNA (thiazole orange fluorescence minimum) (plasmid DNA): 2

Cys-(Lys)4-Cys-(Lys)4-Cys (CKKKKCKKKKC) [Peptide 11]
Particle Size (nm) [1]: 738 ± 154 nm | Zeta Potential (mV) [1]: 31 ± 3 mV | sodium chloride concentration up to which DNA condensates are stable [2]: 2.5 M

Cys-(His-Lys)4-Cys (CHKHKHKHKC) [Peptide 15]
Particle Size (nm) [1]: 205 ± 104 nm | Zeta Potential (mV) [1]: 23 ± 1 mV

Cys-Lys-Cys-Lys-Cys (CKCKC; printed: Cys-Lys-Cys-Lys-Cys) [Peptide 8]
charge ratio (NH4+:PO4) needed to condense DNA (thiazole orange fluorescence minimum) (plasmid DNA): 6-8

Cys-His-(Lys)3-His-(Lys)2-His-Cys (CHKKKHKKHC) [Peptide 14]
Particle Size (nm) [1]: 183 ± 64 nm | Zeta Potential (mV) [1]: 20 ± 2 mV | higher gene expression compared to peptide 7 DNA condensates (HepG2 cells): 4 fold

Cys-(Lys)2-Cys (CKKC) [Peptide 4]
charge ratio (NH4+:PO4) needed to condense DNA (thiazole orange fluorescence minimum) (plasmid DNA): > 8

Cys-His-Lys-His-Lys-(His)2-Lys-His-Cys (CHKHKHHKHC) [Peptide 16]
Particle Size (nm) [1]: 320 ± 169 nm | Zeta Potential (mV) [1]: 23 ± 1 mV

Cys-(Lys)2-Cys-(Lys)2-Cys (CKKCKKC) [Peptide 9]
Particle Size (nm) [1]: 1668 ± 154 nm | sodium chloride concentration up to which DNA condensates are stable [2]: 1.5 M

Cys-Trp-Lys5-Cys-Lys5-Cys-Lys5-Cys [Peptide IV]
sodium chloride concentration up to which fragmentation was resisted [3]: 2.5 M | Particle Size Mean Diameter, Oxidized, 15° [4]: 57 nm | Particle Size Mean Diameter, Oxidized, 90° [4]: 44 nm | Particle Size Mean Diameter, Saline [4]: 324 nm | particle size of electronegative DNA condensates ([4]; charge ratio of 0.9): 62 nm | zeta potential of electronegative DNA condensates ([4]; charge ratio of 0.9): −18 mV | Particle Size Mean Diameter, Reduced [4]: 158 nm

Cys-(Lys)3-Cys-(Lys)3-Cys (CKKKCKKKC) [Peptide 10]
Particle Size (nm) [1]: 1375 ± 324 nm | Zeta Potential (mV) [1]: 34 ± 2 mV | sodium chloride concentration up to which DNA condensates are stable [2]: 2.5 M

Cys-His-(Lys)6-His-Cys (CHKKKKKKHC) [Peptide 13]
Particle Size (nm) [1]: 97 ± 40 nm | Zeta Potential (mV) [1]: 31 ± 1 mV | higher gene expression compared to peptide 7 DNA condensates (HepG2 cells): 4 fold

Cys-Trp-Lys8-Cys-Lys8-Cys (CWKKKKKKKKCKKKKKKKKC) [III]
Particle Size Mean Diameter, Oxidized, 15° [4]: 26 nm | Particle Size Mean Diameter, Oxidized, 90° [4]: 39 nm | Particle Size Mean Diameter, Saline [4]: 157 nm | Particle Size Mean Diameter, Reduced [4]: 136 nm
